The data set concerns the target glucocorticoid receptor (GR) (UniProt P04150 1-777). In words: EMSA.

Sequence of glucocorticoid receptor (GR) (P04150 whole entry): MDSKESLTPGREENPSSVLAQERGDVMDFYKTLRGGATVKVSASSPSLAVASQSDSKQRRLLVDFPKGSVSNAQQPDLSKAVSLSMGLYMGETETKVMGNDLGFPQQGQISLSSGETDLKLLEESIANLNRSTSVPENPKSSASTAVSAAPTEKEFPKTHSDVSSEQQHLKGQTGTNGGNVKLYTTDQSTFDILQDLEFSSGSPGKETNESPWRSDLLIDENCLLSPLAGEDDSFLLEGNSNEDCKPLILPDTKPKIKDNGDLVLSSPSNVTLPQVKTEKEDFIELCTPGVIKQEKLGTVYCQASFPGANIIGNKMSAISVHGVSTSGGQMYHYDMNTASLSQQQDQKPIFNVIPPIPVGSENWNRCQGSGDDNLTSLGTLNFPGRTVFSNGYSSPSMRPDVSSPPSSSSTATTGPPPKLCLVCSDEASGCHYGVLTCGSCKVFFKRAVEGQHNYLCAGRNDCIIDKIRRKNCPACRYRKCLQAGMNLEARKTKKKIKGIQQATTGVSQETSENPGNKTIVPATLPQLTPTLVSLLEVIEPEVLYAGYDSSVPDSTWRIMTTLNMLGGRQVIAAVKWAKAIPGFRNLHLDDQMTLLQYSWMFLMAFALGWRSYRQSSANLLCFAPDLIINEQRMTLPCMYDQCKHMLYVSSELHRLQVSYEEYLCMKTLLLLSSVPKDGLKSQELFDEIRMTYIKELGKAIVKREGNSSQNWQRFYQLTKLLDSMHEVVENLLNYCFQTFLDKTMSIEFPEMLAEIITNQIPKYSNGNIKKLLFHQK

B1: GRE (dsDNA)
DNA 1: CTAGGCTGTACAGGATGTTCTGCCTAG
DNA 2: CTAGGCAGAACATCCTGTACAGCCTAG
Turning to B1, the binding result is on record as “binds”.

B2: AAV2 D-sequence (D) (dsDNA)
DNA 1: CTCCATCACTAGGGGTTCCT
DNA 2: AGGAACCCCTAGTGATGGAG
Regarding B2, the binding result is “binds”.

The record behind these values is article PMC11101737.
